Source: patent US9127075B2, “Analgesic active peptide VGG, preparation and use thereof” (priority 2010, dated 2015)
Where two headings read alike, the source gives them in different places.

How the values were obtained:
[1] = system: mouse twisting model induced by acetic acid; assay type: in vivo
Protocol: 1. In Vivo Analgesic Activity in Mouse Twisting Model Induced by Acetic Acid.
In mouse twisting model: The glacial acetic acid as the chemical irritant is injected into the mouse stomach, which causes a deep and large area and lasting pain stimulus for animal which has a “twist body” reaction, such as abdominal cove, torso and legs spread out, hip high up.
Equal numbers of male and female mice, whose weight were about […], were divided into groups by random. Each group consisted of eight mice. 0.2 ml/20 g of 0.6% (v/v) of acetic acid, which caused visceral pain, was intraperitoneally injected after the test sample was injected into the stomach of mouse for 20 minutes. The writhing times of the mouse were recorded for 10 min after the acetic acid was injected for 5 min. […] The inhibition of writhing response inhibition for each test group was calculated by the following formula: […]

[2] = system: mouse hot plate analgesic method; assay: In vivo assay of analgesic activity, hot plate method of mice; details: 0.1 mg/kg i.v. via tail, hot plate 55±0.5° C.; for B, average response time after medicine taken: before 21 ± 4.2 s
Protocol: 2. In Vivo Assay of Analgesic Activity—Hot Plate Method of Mice
This example is used to verify the in vivo biological activity for the analgesic activity of analgesic active peptide VGG with […].
The mouse hot plate analgesic method: the female mice with weight from 18 g to 22 g were put a hot plate at temperature of 55±0.5° C. which was maintained by a water bath. The licking times were recorded plate as the pain threshold of mouse after it was put onto the hot plate. The pain threshold between 10-30 seconds was considered to be qualified for experiments. The qualified mice were divided into groups by random. The normal pain reaction time of mouse was determined for two times. The mean of the pain threshold (B) was calculated before medicine was taken. The analgesic active peptide VGG (dosage of 0.1 mg/kg (test sample/mouse weight) was intravenously injected via tail. The normal saline was used as control group. The pain reaction time was recorded as one at 15, 30, 45, 60 […] after the test sample was taken. The mouse was immediately taken out if it had no pain response on the hot plate in 60 seconds. The 60 seconds as a calculation unit, the pain threshold increasing percentage was calculated by the following formula: A=(B−C)/C×100% • A—Pain threshold increasing percentage • B—Average response time after medicine taken • C—Average response time before medicine taken

B1: analgesic active peptide VGG (protein, listed as Mesobuthus martensi)
chain: VKDGYIADDRNCPYFCGRNAYCDGECKKNRAESGYCQWASKYGNACWCYKLPDDARIMKPGRCNGG
B1 was tested, and the “inhibition of the animal writhing” value ([1]; purest analgesic active peptide VGG, dosage 0.1 mg/kg) was at least 60%, the “inhibition of the animal writhing” value ([1]; various purity, isolated from scorpion venom or scorpion tails or scorpion body, dosage 0.1 mg/kg-1.0 mg/kg) was at least 50% and the “A, pain threshold increasing percentage” value ([2]; 10 min) was 128%. The “B, average response time after medicine taken” value (“B, average response time” for short) ([2]; 10 min) was 48 ± 3.2 s, the “A, pain threshold increasing percentage” value ([2]; 15 min) was 138% and the “B, average response time” value ([2]; 15 min) was 50 ± 5.1 s. For the same molecule, the “A, pain threshold increasing percentage” value ([2]; 30 min) was 114%, the “B, average response time” value ([2]; 30 min) was 45 ± 3.7 s and the “A, pain threshold increasing percentage” value ([2]; 45 min) was 100%. The “B, average response time” value ([2]; 45 min) was 42 ± 6.9 s, the “A, pain threshold increasing percentage” value ([2]; 60 min) was 90% and the “B, average response time” value ([2]; 60 min) was 40 ± 3.5 s.
